± gives the uncertainty stated by the source.

The nature of the data set: self-splicing fitness, log relative to wild type (ln ratio); higher = more splicing; Tetrahymena group I intron in knt gene, E. coli kanamycin selection, DiMSum; sequences stand for … in CUCUCU…GGAGGGAAAAGUUAUCAGGCAUGCACCUGGUAGCUAGUCUUUAAACCAAUAGAUUGCAUCGGUUUAAAAGGCAAGACCGUCAAAUUGCGGGAAAGGGGUCAACAGCCGUUCAGUACCAAGUCUCAGGGGAAACUUUGAGAUGGCCUUGCAAAGGGUAUGGUAAUAAGCUGACGGACAUGGUCCUAACCACGCAGCCAAGUCCUAAGUCAACAGAUCUUCUGUUGAUAUGGAUGCAGUUCACAGACUAAAUGUCGGUCGGGGAAGAUGUAUUCUUCUCAUAAGAUAUAGUCGGACCUCUCCUUAAUGGGAGCUAGCGGAUGAAGUGAUGCAACACUGGAGCCGCUGGGAACUAAUUUGUAUGCGAAAGUAUAUUGAUUAGUUUUGGAGUACUCGUGGUCG
Summed up: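 Fitness was computed with DiMSum as the error-weighted combination of replicate fold changes, kanamycin versus none, each normalised to wild type. The library randomised all eight intron nucleotides of the P1ex region, with the intron placed in the knt kanamycin-resistance gene on pET-22b(+) in E. coli BL21(DE3). Six replicate transformations were grown overnight at 37°C or 30°C on LB agar with or without 25 μg/mL kanamycin, plus 100 μg/mL carbenicillin, 50 μM IPTG and 0.2% rhamnose. Pooled colonies were amplicon-sequenced on an Illumina HiSeq 2500.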

For CUUAAGCAAUAUUACGAGGG, the “self-splicing fitness (ln)” value (30 °C) is -2.95 ± 0.21 and the “self-splicing fitness (ln)” value (37 °C) was -2.85 ± 0.29. On the same counts, the results for ACCGAGCAAUAUUACGAGGG are -3.2 ± 0.17 and -3.06 ± 0.21.

As to UACAAGCAAUAUUACGAGGG, the “self-splicing fitness (ln)” value (30 °C) is -2.8 ± 0.14 and the “self-splicing fitness (ln)” value (37 °C) is -1.47 ± 0.14. Regarding CGCCAGCAAUAUUACGCAUA, the “self-splicing fitness (ln)” value by setting is: (30 °C) -3.34 ± 0.24; (37 °C) -1.86 ± 0.2.

For UAAGAGCAAUAUUACGGAGC, the “self-splicing fitness (ln)” value (30 °C) was -3.44 ± 0.4. Consider ACGUAGCAAUAUUACGACCG, for which the “self-splicing fitness (ln)” value (30 °C) was -0.218 ± 0.1 and the “self-splicing fitness (ln)” value (37 °C) was found to be 0.0549 ± 0.12. The matching figures for GGCAAGCAAUAUUACGGCGA: -0.134 ± 0.082 and 0.235 ± 0.11. As for CAACAGCAAUAUUACGUGCG, the “self-splicing fitness (ln)” value was -0.886 ± 0.053 (30 °C) and -0.129 ± 0.074 (37 °C).

Take GUCGAGCAAUAUUACGCUUG: the “self-splicing fitness (ln)” value (37 °C) is -2.36 ± 0.33. With UAUGAGCAAUAUUACGGUUG, the “self-splicing fitness (ln)” value reads like this: (30 °C) -4.24 ± 0.43; (37 °C) -2.38 ± 0.45. On the same counts, the results for UAAAAGCAAUAUUACGAACA are -0.822 ± 0.072 and 0.504 ± 0.11. Turning to CUUAAGCAAUAUUACGCGGA, the “self-splicing fitness (ln)” value runs as follows: (30 °C) -1.74 ± 0.25; (37 °C) -2.58 ± 0.44. On the same counts, the results for UGAAAGCAAUAUUACGAUCG are -0.144 ± 0.15 and 0.0927 ± 0.17.

On to GAAGAGCAAUAUUACGAAAC, for which the “self-splicing fitness (ln)” value (30 °C) is -2.57 ± 0.27 and the “self-splicing fitness (ln)” value (37 °C) is -1.38 ± 0.39. The matching figures for UACUAGCAAUAUUACGAUGU: -3.42 ± 0.27 and -1.74 ± 0.22. On the same counts, the results for GAGGAGCAAUAUUACGUUUU are -2.16 ± 0.13 and -1.56 ± 0.15.

On to GAUGAGCAAUAUUACGUUCA, for which the “self-splicing fitness (ln)” value is -1.15 ± 0.079 (30 °C) and -0.819 ± 0.094 (37 °C).

GGCAAGCAAUAUUACGAGUC: the “self-splicing fitness (ln)” value (30 °C) is -2.64 ± 0.12 and the “self-splicing fitness (ln)” value (37 °C) is -1.78 ± 0.13.

As for GUCUAGCAAUAUUACGUGCC, the “self-splicing fitness (ln)” value is -1.54 ± 0.24 (30 °C) and -0.468 ± 0.28 (37 °C). On the same counts, the results for GUAAAGCAAUAUUACGCGCC are -2.22 ± 0.2 and -1.03 ± 0.23. As for AACGAGCAAUAUUACGUACA, the “self-splicing fitness (ln)” value is -3.11 ± 0.17 (30 °C) and -2.19 ± 0.14 (37 °C). The matching figures for CCAUAGCAAUAUUACGUCAG: -1.74 ± 0.13 and -1.61 ± 0.15.

UCUAAGCAAUAUUACGUGAU: the “self-splicing fitness (ln)” value by setting is: (30 °C) -4.27 ± 0.22; (37 °C) -2.69 ± 0.18. As to GAGUAGCAAUAUUACGGUCA, the “self-splicing fitness (ln)” value (30 °C) is -0.51 ± 0.12 and the “self-splicing fitness (ln)” value (37 °C) was found to be 0.0478 ± 0.12. Consider ACAAAGCAAUAUUACGCAUG, for which the “self-splicing fitness (ln)” value (30 °C) was -1.82 ± 0.075 and the “self-splicing fitness (ln)” value (37 °C) is -0.868 ± 0.084. Consider UACUAGCAAUAUUACGGUGC, for which the “self-splicing fitness (ln)” value (30 °C) is -3.29 ± 0.26 and the “self-splicing fitness (ln)” value (37 °C) was -2.04 ± 0.31. On the same counts, the results for CACUAGCAAUAUUACGUAAG are 0.264 ± 0.061 and 0.0438 ± 0.073. As to UAGAAGCAAUAUUACGGGGA, the “self-splicing fitness (ln)” value by setting is: (30 °C) -2.39 ± 0.14; (37 °C) -0.988 ± 0.12. On the same counts, the results for CAUUAGCAAUAUUACGUUGU are -3.95 ± 0.23 and -2.75 ± 0.22. The matching figures for UGCAAGCAAUAUUACGAGCC: -1.39 ± 0.11 and -1.52 ± 0.14. For GUUCAGCAAUAUUACGCGAU, the “self-splicing fitness (ln)” value (30 °C) was -2.39 ± 0.13 and the “self-splicing fitness (ln)” value (37 °C) was -2.74 ± 0.24.

On to UUCAAGCAAUAUUACGCAUA, for which the “self-splicing fitness (ln)” value runs as follows: (30 °C) -1.24 ± 0.096; (37 °C) -0.0175 ± 0.1. On the same counts, the results for GCUCAGCAAUAUUACGGAUA are -1.34 ± 0.12 and -0.254 ± 0.1. For UGACAGCAAUAUUACGCAAU, the “self-splicing fitness (ln)” value (30 °C) was -2.38 ± 0.12 and the “self-splicing fitness (ln)” value (37 °C) is -1.84 ± 0.16. Take UUUAAGCAAUAUUACGGUGG: the “self-splicing fitness (ln)” value is, setting by setting: (30 °C) -0.86 ± 0.087; (37 °C) -0.646 ± 0.12. On the same counts, the results for ACCCAGCAAUAUUACGUCUA are -1.41 ± 0.093 and -0.988 ± 0.09.

Turning to CGAGAGCAAUAUUACGACAU, the “self-splicing fitness (ln)” value by setting is: (30 °C) -3.964 ± 0.034; (37 °C) -2.84 ± 0.046. Turning to GCAUAGCAAUAUUACGAAUG, the “self-splicing fitness (ln)” value by setting is: (30 °C) -2.33 ± 0.096; (37 °C) -1.85 ± 0.12.

(Values after the supplement of paper PMC7877785.)
